Data published in US20120315270A1 (UNITED STATES OF AMERICA AS REPRESENTED BY THE, published 2012).
Where two headings read alike, the source gives them in different places.

Tests used:
[1] = biological target: RSV F glycoprotein on GFP-expressing RSV (respiratory syncytial virus, UniProt P03420 26-574); assay: cell-based or functional assay
1lp1b-003_K272E = biological target: T1, 1lp1b-003_K272E; assay: SPR (Example 7)
T1 construct: also called 1lp1b(K272E)

1lp1b-003 F2Y H15N = assay: co-crystallization
[2] = biological target: T2, Motavizumab fragment of antigen binding (Fab); assay: SPR (Biacore), motavizumab Fab immobilised, immunogen injected
T2 construct: also called motavizumab Fab

[3] = biological target: T2, Motavizumab fragment of antigen binding …; assay: as above; remark: listed apart in the source
[4] = biological target: motavizumab (as used in ITC); assay: ITC

B1: motavizumab IgG (antibody, V domains shown)
VH: QVTLRESGPALVKPTQTLTLTCTFSGFSLSTAGMSVGWIRQPPGKALEWLADIWWDDKKHYNPSLKDRLTISKDTSKNQVVLKVTNMDPADTATYYCARDMIFNFYFDVWGQGTTVTVSS
VL: DIQMTQSPSTLSASVGDRVTITCSASSRVGYMHWYQQKPGKAPKLLIYDTSKLASGVPSRFSGSGSGTEFTLTISSLQPDDFATYYCFQGSGYPFTFGGGTKVEIK
With B1 as the binder, how does the “EC50 (read off the curve), neutralization of GFP-expressing RSV on HEp-2 cells, flow cytometry” value [1] read?
The value was about 0.06 nM.

B2: motavizumab Fab (Fab, V domains shown)
VH: QVTLRESGPALVKPTQTLTLTCTFSGFSLSTAGMSVGWIRQPPGKALEWLADIWWDDKKHYNPSLKDRLTISKDTSKNQVVLKVTNMDPADTATYYCARDMIFNFYFDVWGQGTTVTVSS
VL: DIQMTQSPSTLSASVGDRVTITCSASSRVGYMHWYQQKPGKAPKLLIYDTSKLASGVPSRFSGSGSGTEFTLTISSLQPDDFATYYCFQGSGYPFTFGGGTKVEIK
notes: also called the Fab
Does B2 bind (1lp1b-003_K272E)?
Result: no binding

B3: motavizumab (format in the assay not stated) (antibody, V domains shown)
VH: QVTLRESGPALVKPTQTLTLTCTFSGFSLSTAGMSVGWIRQPPGKALEWLADIWWDDKKHYNPSLKDRLTISKDTSKNQVVLKVTNMDPADTATYYCARDMIFNFYFDVWGQGTTVTVSS
VL: DIQMTQSPSTLSASVGDRVTITCSASSRVGYMHWYQQKPGKAPKLLIYDTSKLASGVPSRFSGSGSGTEFTLTISSLQPDDFATYYCFQGSGYPFTFGGGTKVEIK
Does B3 bind (1lp1b-003 F2Y H15N)?
Result: binds

B4: 1s2xa_003 (designed binder)
chain: GSPNSRVDELGFNEAERQKILDSNSSLMRNANEVRDKFIQNYATSLKDSNDPQDFLRRVQELRINMQKNFISFDAYYNYLNNLVLASANRASQELSFANDTIKNNDTKKLFSNEIADNFNNFTADEVARISDLVASYLPREYLPPFIDGNMMGVAFQILGIDDFGKKLNEIVQDIGTK
notes: also called Cag-Z
How did the Kd [2] turn out when B4 was run?
Its Kd is 3 µM.

What about the Kd [3] of the same binder?
Its Kd is 3 µM.

What about the “-TdS” value [4] of the same binder?
Its value is 9.9.

What about the Kd [4] of the same binder?
Its Kd is 0.147 µM.

And the dH [4]?
The dH was -19.2.

B5: 1s2xa_004 (designed binder)
chain: GSPNSRVDELGFNEAERQKILDSNSSLMRNANEVRDKFIQNYATSLKDSNDPQDFLRRVQELRINMQKNFISFDAYYNYLNNLVLASANRASQELSFINDTIKNNDTKKLFSNEAADNFNNFTADEVARISDLVASYLPREYLPPFIDGNMMGVAFQILGIDDFGKKLNEIVQDIGTK
B5 was tested. Which Kd [2] did it give?
Its Kd is 3.95 µM.

What about the “-TdS” value [4] of the same binder?
The value was 10.7.

What about the Kd [4] of the same binder?
Its Kd is 0.275 µM.

What about the dH [4] of the same binder?
The dH was -19.6.

B6: 1s2xa_002 (designed binder)
chain: GSPNSRVDELGFNEAERQKILDSNSSLMRNANEVRDKFIQNYATSLKDSNDPQDFLRRVQELRINMQKNFISFDAYYNYLNNLVLASANRASQELSFINDTIKNNDTKKLFSNEAADNFNNFTADEVARISDLVASYLPREYLPPFIDGNMMGVAFQILGIDDFGKKLNEIVQDIGTKY
With B6 as the binder, how does the Kd [2] read?
Its Kd is 3.64 µM.

What about the Kd [3] of the same binder?
Its Kd is 3.64 µM.

B7: 1s2xa_001 (designed binder)
chain: GSPNSRVDELGFNEAERQKILDSNSSLMRNANEVRDKFIQNYATSLKDSNDPQDFLRRVQELRINMQKNFISFDAYYNYLNNLVLASANRCSQELSFANDTIKNNDTKKLFSNEIADNFNNFTADEVARISDLVASYLPREYLPPFIDGNMMGVAFQILGIDDFGKKLNEIVQDIGTKY
What does the source list for B7?
Kd [2]: 4.75 µM; Kd [3]: 4.75 µM

B8: 2eiaa_001 (designed binder)
chain: APRGYTTWVNTIQTNGLLNEASQNLFGILSVDATSEEMNAFLDVVPGQAGQKQILLDAIDKIADDWDNRHPLPNAPLVAPPQGPIPMTARFIRGLGVPRERQMEPAFDQFRQTYRQWIIEAMSEGIKVMIGKPKAQNIRQGAKEPYPEFVSRLLSQINDEGHPNDIKKLRSNTLTIQNANEECRNAMRHLRPSDTGAEKMYACRDIG
Does B8 bind [2]?
Result: no binding
